Assay results: PMC6753076

Biological target: PELI1 (UniProt Q96FA3)
Experiment: anti-Flag co-immunoprecipitation, immunoblot
Conditions: reference: wild type; sites T382

- binding against the reference: lost
Substance: HPD (from UniProt P32754) T382A
